Measurements reported in publication PMC10819704, “Regulatory Role of GgaR (YegW) for Glycogen Accumulation in Escherichia coli K-12” (Microorganisms, 2024).

Key:
GgaR (YegW) = GgaR (YegW) (Escherichia coli, UniProt P0ACM5); test: gel shift assay: loss of GgaR-DNA complex; assay type: binding; settings: 2.0 pmol GgaR, 0.5 pmol fbaB/yegT spacer DNA probe, 10-100 uM ADPG, 37 °C; effector (inducer) releasing the repressor from DNA
[1] = target: T1, GgaR (YegW) (Escherichia coli K-12 W3110) (UniProt P0ACM5); test: EMSA; settings: EMSA: binding buffer composition and pH not given; 37 C, 30 min (+30 min with effector); 0.5 pmol probe; 5% PAGE, GelRed stain
T1 sequence: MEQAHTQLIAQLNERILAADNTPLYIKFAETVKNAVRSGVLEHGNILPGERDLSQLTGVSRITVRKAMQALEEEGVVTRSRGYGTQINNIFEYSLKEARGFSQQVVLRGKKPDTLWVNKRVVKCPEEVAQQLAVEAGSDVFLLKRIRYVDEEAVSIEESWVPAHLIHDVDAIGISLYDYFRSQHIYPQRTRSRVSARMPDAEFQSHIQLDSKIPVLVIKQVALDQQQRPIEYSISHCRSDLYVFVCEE

Compound | gel shift assay: loss of GgaR-DNA complex (GgaR (YegW)) | binding [1]
Nc1ncnc2c1ncn2[C@@H]1O[C@H](COP(=O)(O)OP(=O)(O)O[C@H]2O[C@H](CO)[C@@H](O)[C@H](O)[C@H]2O)[C@@H](O)[C@H]1O [ADPG, ADP-glucose] | After adding increasing concentrations of ADPG, the complex of GgaR and the fbaB/yegT spacer | –
TTTCTGATGAATCGAGCCAACAGAAAACGCTGAAAAAACATCCAAAAGATGGAAAAACTCGCCCGTAACGACCAGGATTATGATTGCCCGCAAAAGGCGGGCCAGGACAATCCATAGCCGATATCCAATCGGAATTTACGGGAGCATAGTAATGACAGATATTGCGCAGTTGCTTGGCAAAGACGCCGACAACCTTTTACAGCACCGTTGTATGACAATTCCTTCTGACCAGCTTTATCTCCCCGGACATGACTACGTAGACCGCGTAATGATTG (double strand) [probe-1] | – | no binding
AAATGGATATTAAAGTCATGCTCGGCCTGGATGCGCTGATCCTGCTGCGCGATAAAAACTTCCTCGTCTTTTTCTTCTGTTCATTCCTGTTTGCGATGCCACTAGCGTTCTATTACATCTTTGCCAACGGTTATCTGACCGAAGTTGGCATGAAAAACGCCACCGGCTGGATGACGCTCGGCCAGTTCTCTGAAATCTTCTTTATGCTGGCATTGCCGTTTTTCACTAAACGCTTTGGTATCAAAAAGGTATTATTGCTTGGTCTGGTCACCGCTGCGATCCGCTATGGCTTCTTTAT (double strand) [probe-5] | – | binds more weakly
AATCATAATCCTGGTCGTTACGGGCGAGTTTTTCCATCTTTTGGATGTTTTTTCAGCGTTTTCTGTTGGCTCGATTCATCAGAAAAAATGTTAGCGCGGTCAAGTTTTCACCGCAAAGGTATTTAAAAGGTATTATTAAGTGGTATTGTCATCGCGTACCTTACATTACCTGTCATGAAGGAATTAAAAGATGAAAACAACAGCAAAGCTGTCGTTCATGATGTTTGTTGAATGGTTTATC (double strand) [probe-2] | – | binds
